Assay results from paper PMC7703752, “Proteome-level assessment of origin, prevalence and function of leucine-aspartic acid (LD) motifs” (Bioinformatics, 2019).
Where no end group is shown, it is not given here. The star is where a group is joined. FITC = O=C1OC2(c3ccc(O)cc3Oc3cc(O)ccc32)c2ccc(NC(=S)*)cc21; Ahx = NCCCCCC(=O)O

Columns and labels:
[1] = target: T1, FAT domain of human FAK (892–1052) (human, UniProt Q05397 892-1052); assay: FP
T1 chain: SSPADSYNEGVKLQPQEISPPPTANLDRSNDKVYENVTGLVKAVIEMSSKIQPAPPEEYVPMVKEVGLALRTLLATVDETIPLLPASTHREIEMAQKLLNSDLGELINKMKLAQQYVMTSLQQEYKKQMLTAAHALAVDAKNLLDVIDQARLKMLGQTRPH

[2] = target: T2, Human α-parvin-CHC (residues 242–372) (human, UniProt Q9NVD7 242-372); assay: FP
T2 chain: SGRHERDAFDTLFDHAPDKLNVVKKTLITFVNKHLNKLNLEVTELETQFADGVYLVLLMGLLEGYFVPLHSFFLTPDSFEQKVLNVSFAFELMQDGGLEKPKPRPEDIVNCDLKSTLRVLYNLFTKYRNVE

[3] = target: T3, rat GIT1 (647-770) (rat, UniProt Q9Z272 647-770); assay: FP
T3 chain: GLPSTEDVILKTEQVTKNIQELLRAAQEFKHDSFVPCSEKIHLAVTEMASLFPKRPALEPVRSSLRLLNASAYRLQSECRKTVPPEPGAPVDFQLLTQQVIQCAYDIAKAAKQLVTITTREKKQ

[4] = target: T1, FAT domain of human FAK (892–1052); assay: ITC
[5] = target: T3, rat GIT1 (647-770); assay: ITC
[6] = target: T1, FAT domain of human FAK (892–1052); assay: MST
[7] = target: T2, Human α-parvin-CHC (residues 242–372); assay: MST
[8] = target: T4, FAT domain of human FAK (892–1052) (human, UniProt Q05397 892-1052); assay: fluorescence polarisation + MST + ITC + other: differential scanning fluorimetry; synthesized peptides against recombinant LDBDs in vitro; direct anisotropy with labelled candidate peptides, anisotropy competition of unlabelled peptides against fluorescently labelled known LD motifs, ITC, MST and DSF summed up together; 25°C, 20 mM HEPES pH 7.5, 150 mM NaCl, 2 mM EDTA, 1 mM TCEP, unless stated otherwise; details: both partners purified
T4 construct: focal adhesion kinase (FAK), human, FAT domain, residues 892-1052; 15N-labelled for the NMR titrations; Purification and fate of the GST are told only in the Supplementary Material and in the cited work (Arold et al., 2002); also called FAK FAT; four-helix FAT domain from FAK; source: E. coli BL21, expressed as GST-fusion protein
T4 sequence (looked up): T1 chain

[9] = target: T5, Human α-parvin-CHC (residues 242–372) (human, UniProt Q9NVD7 242-372); assay: as above; details: both partners purified
T5 construct: α-parvin, human, second CH domain (CHC), residues 242-372; Purification and fate of the GST are told only in the Supplementary Material and in the cited work (Lorenz et al., 2008); also called second CH domain of α-parvin; source: E. coli BL21, expressed as GST-fusion protein
T5 sequence (looked up): T2 chain

[10] = target: T3, rat GIT1 (647-770); assay: MST
[11] = target: T6, FAT domain of human FAK (892-1052) (human, UniProt Q05397 892-1052); assay: fluorescence polarisation; direct anisotropy: FAT or α-parvin titrated, FITC-Ahx-labelled LD4 at 0.1 μM; 20 mM HEPES pH 7.5, 150 mM NaCl, 2 mM EDTA, 2 mM DTT, 0.005% Tween-20; room temperature; details: both partners purified
T6 construct: focal adhesion kinase (FAK), human, FAT domain, residues 892-1052; 15N-labelled (M9 minimal medium) in the NMR titrations; also called FAK FAT; focal adhesion targeting domain; source: E. coli BL21, expressed as GST-fusion protein (pGexP2), purified as described previously (Arold et al., 2002)
T6 sequence (looked up): T1 chain

[12] = target: T7, Human α-parvin-CHC (residues 242-372) (human, UniProt Q9NVD7 242-372); assay: as above; details: both partners purified
T7 construct: α-parvin, human, C-terminal CH domain, residues 242-372; also called second CH domain of α-parvin; source: E. coli BL21, expressed as GST-fusion protein (pGex 6P1), purified as described previously (Lorenz et al., 2008)
T7 sequence (looked up): T2 chain

[13] = target: T7, Human α-parvin-CHC (residues 242-372); assay: fluorescence polarisation; anisotropy competition assay (ACA): 10 μM FAT or 25 μM α-parvin with 0.1 μM FITC-Ahx-LD4; unlabelled peptide added at 100 and 250 μM; details: both partners purified
[14] = target: T6, FAT domain of human FAK (892-1052); assay: differential scanning fluorimetry; 10 μM protein, peptide at 100 and 250 μM, SYPRO Orange; 20 mM HEPES pH 7.5, 150 mM NaCl, 2 mM EDTA, 1 mM TCEP; 20 to 95 °C; details: both partners purified
[15] = target: T8, rat GIT1 (647-770) (rat, UniProt Q9Z272 647-770); assay: fluorescence polarisation + MST; 'additional DA and MST experiments' with GIT1: GIT1 serially diluted (MST from 630 μM, standard capillaries, 25 °C), FITC-Ahx peptide 0.1 μM; 20 mM HEPES pH 7.5, 150 mM NaCl, 2 mM EDTA, 2 mM DTT, Tween-20; details: both partners purified
T8 construct: also called GIT1 FAH; GIT1 FAH domain; source: E. coli BL21, expressed as GST-fusion protein (pGex-4T1), purified as described previously (Schmalzigaug et al., 2007)
T8 sequence (looked up): T3 chain

[16] = target: T6, FAT domain of human FAK (892-1052); assay: fluorescence polarisation + MST; the 'quantitative' methods, summed up in one sentence for each peptide: direct anisotropy (protein serially diluted, FITC-Ahx peptide 0.1 μM; 20 mM HEPES pH 7.5, 150 mM NaCl, 2 mM EDTA, 2 mM DTT, 0.005% Tween-20; room temperature) and MST (protein diluted from 560 μM FAT or 530 μM α-parvin, labelled peptide 0.1 μM, 0.05% Tween-20, 25 °C); ITC in selected cases; details: both partners purified
[17] = target: T7, Human α-parvin-CHC (residues 242-372); assay: as above; details: both partners purified
[18] = target: T6, FAT domain of human FAK (892-1052); assay: as above; details: both partners purified; remark: listed apart in the source
[19] = target: T7, Human α-parvin-CHC (residues 242-372); assay: as above; details: both partners purified; remark: listed apart in the source

B1: EPB41L5 (Band 4.1-like protein 5) LD motif peptide (peptide)
peptide: ATDELDALLASLTENLID
modifications: also: N-terminal FITC-Ahx only in labelled form
notes: predicted LD motif of human EPB41L5 (Band 4.1-like protein 5); also called E41L5; YMO1; source: synthetic peptide, bought: GenScript
Q: What does the source list for B1?
A: Kd [1]: 2.7 µM; Kd [2]: 28.2 µM; Kd [3]: 83.6 µM; Kd [4]: 6 µM; Kd [5]: 39.3 µM; Kd [6]: 13 µM; Kd [7]: 4 µM; binding result [8]: binds; binding result [9]: binds

B2: RALGAPA1 LD motif peptide (peptide)
peptide: EDVLDELLQYLGVT
modifications: also: N-terminal FITC-Ahx only in labelled form
notes: predicted LD motif of human RALGAPA1; also called RGPA1; source: synthetic peptide, bought: GenScript
Q: Which Kd [1] does the source give for B2 here?
A: The Kd was 43.6 µM.

Q: What about the Kd [2] of the same binder?
A: Its Kd is 49.4 µM.

Q: What about the Kd [3] of the same binder?
A: The Kd was 88 µM.

Q: And the Kd [6]?
A: Its Kd is 42.5 µM.

Q: And the Kd [7]?
A: The Kd was 25.7 µM.

Q: And the Kd [10]?
A: The Kd was 77.5 µM.

Q: Does B2 bind [8]?
A: Result: binds

Q: Does B2 bind [9]?
A: Result: binds

B3: paxillin LD4 peptide, FITC-Ahx-labelled (peptide)
peptide: {FITC-Ahx}-SASSATRELDELMASLSD
notes: paxillin, human, LD4 motif with flanking residues; also called labelled LD4; FITC-Ahx-labelled LD4; source: synthetic peptide, bought: GenScript
Q: What does the source list for B3?
A: Kd [11]: 10 µM; Kd [12]: 25 µM

B4: paxillin LD4 peptide, unlabelled (peptide)
peptide: SASSATRELDELMASLSD
notes: paxillin, human, LD4 motif with flanking residues; form without label, used in ACA, DSF, ITC and NMR; source: synthetic peptide, bought: GenScript
Q: Does B4 bind [13]?
A: Result: binds

Q: Does B4 bind [14]?
A: Result: binds

B5: RALGAPA1 LD motif peptide, FITC-Ahx-labelled (peptide)
peptide: {FITC-Ahx}-EDVLDELLQYLGVT
notes: core motif 1680-1689; labelled form, used in direct anisotropy and MST; also called RGPA1; source: synthetic peptide, bought: GenScript
Q: How did the Kd [15] turn out when B5 was run?
A: Its Kd is about 80 µM.

Q: Does B5 bind [16]?
A: Result: binds

Q: Does B5 bind [17]?
A: Result: binds

B6: C16orf71 LD motif peptide, FITC-Ahx-labelled (peptide)
peptide: {FITC-Ahx}-EAWDLDDILQSLQGQ
notes: Uncharacterized protein C16orf71, human; core motif 267-276; labelled form, used in direct anisotropy and MST; also called CP071; source: synthetic peptide, bought: GenScript
Q: What does the source list for B6?
A: binding result [18]: binds; binding result [19]: binds
